Legend:
[1] = system: Human peripheral blood mononuclear cells (PBMCs); test: TLR agonist-induced TNF-α secretion in human PBMCs with or without TREML1 ECD; format: cell-based; settings: human PBMCs, 18 hr; FIG. 7A
Description: Human peripheral blood samples from healthy volunteer donors were collected by venipuncture bled into ACD vacutainer tubes. Human peripheral blood mononuclear cells (PBMCs), which were separated from whole blood using Ficoll-Paque Plus (GE17-1440-03) according to the manufacturer's instructions. Human peripheral blood mononuclear cells (PBMCs) were pretreated with or without […]1 (10 ug/ml, 5 ug/ml and 1 ug/ml) and incubated for 30 min at 37° C. with 5% CO2. After treatments, cells were stimulated with TLR agonist, including R848 (InvivoGen #tlrl-r848) and ODN2395 (InvivoGen #tlrl-2395), and incubated at 37° C. with 5% CO2 for 18 hr. Supernatants of cell culture medium were collected for TNF-α measurements. Cell supernatants and plasma samples were harvested and stored at -80° C. Human TNFα concentrations were detected using TNF-α DuoSet ELISA kit (R&D #DY210) according to manufacturer's instructions. Signals were developed using 3,3',5,5'-tetramethylbenzidine and the absorbance of 450 nm was detected with a microplate reader.

MD2 = molecular target: T1, MD2 (Homo sapiens, UniProt Q9Y6Y9); test: Solid phase binding assay, hMD2 to immobilized TREML1 stalk; settings: stalk coated 5 ug/ml; anti-His tag antibody-HRP detection; FIG. 3A
T1 sequence (Q9Y6Y9 19-160): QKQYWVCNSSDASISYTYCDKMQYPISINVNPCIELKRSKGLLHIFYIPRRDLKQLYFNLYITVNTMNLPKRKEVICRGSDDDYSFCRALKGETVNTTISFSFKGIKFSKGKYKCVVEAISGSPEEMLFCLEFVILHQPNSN
Description: (§1) For TREML1 or mTREML1 stalk binding to human or mouse MD2 protein, TREML1 stalk or mTREML1 stalk (5 ug/ml in PBS) was coated separately on a 96-well plate. Recombinant hTLR4, hMD2, hCD14, or mMD2 was each serially diluted and added to the plates. Anti-His tag antibody-HRP was used as a detection antibody to detect the protein binding.

TLR4 = TLR4 (Homo sapiens, UniProt O00206); test: Solid phase binding assay, hTLR4 to immobilized TREML1 stalk; settings: stalk coated 5 ug/ml; FIGS. 3A and 3B
Description: as §1

CD14 = molecular target: T2, CD14 (Homo sapiens, UniProt P08571); test: Solid phase binding assay, hCD14 to immobilized TREML1 stalk; settings: stalk coated 5 ug/ml; FIGS. 3A and 3B
T2 sequence (P08571 20-345): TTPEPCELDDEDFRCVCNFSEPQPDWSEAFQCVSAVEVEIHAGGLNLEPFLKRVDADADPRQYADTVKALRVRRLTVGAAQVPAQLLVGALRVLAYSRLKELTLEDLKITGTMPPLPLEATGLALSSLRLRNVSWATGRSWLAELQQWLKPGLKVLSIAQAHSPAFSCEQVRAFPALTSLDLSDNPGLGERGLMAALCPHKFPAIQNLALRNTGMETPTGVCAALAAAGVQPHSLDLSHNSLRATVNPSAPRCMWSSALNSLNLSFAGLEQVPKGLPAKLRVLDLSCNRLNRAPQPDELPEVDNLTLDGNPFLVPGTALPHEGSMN
Description: as §1

BMDCs = test: Mouse bone marrow derived dendritic cell maturation (flow cytometry); format: cell-based; settings: FIG. 8
Description: Femurs and tibiae were harvested from female C57BL/6 mice and extra muscle tissues were removed. Bones were disinfected in 70% ethanol, then rinsed with RPMI-1640 medium, and both ends were cut to flush out the bone marrow with RPMI-1640 medium using 26 G needle syringes. To disperse cell clumps, bone marrow suspension was pipetted in-and-out several times and washed twice with RPMI-1640 medium by centrifugation. […] At day 0, after cell counting, the leukocytes were seeded at a concentration of 2×10^6 cells/10 ml R10 medium containing 200 U/ml rmGM-CSF in sterile […] Petri dish and incubated at 37° C. with 5% CO2. At day 3, another 10 ml of R10 medium containing 200 U/ml rmGM-CSF was added. At days 6, one half of the supernatant was taken out and centrifuged to collect cell pellet, which was resuspend in original plate with 10 ml of R10 medium containing 200 U/ml GM-CSF. At day 8, non-adherent cells were collected by gentle pipetting and centrifuged at 300 g for 5 min. To obtain purer dendritic cells, the population of macrophages (F4/80^high) was removed with Anti-F4/80 MicroBeads UltraPure (130-110-443, Miltenyi Biotec, Bergisch Gladbach, Germany) following the manufacturer's instructions. Briefly, cell pellet was resuspended and mixed well in MACS buffer with Anti-F4/80 MicroBeads UltraPure. This mixture was incubated for 15 min in the dark in 4° C. After washing cells with MACS buffer, cells were resuspended in MACS buffer, filtered with 30 μm nylon mesh, and added to the MACS buffer rinsed column to separate F4/80^+ cells. Unlabeled cells were collected and washed with R10 medium. To freeze the cells, cell pellet was counted and resuspended at a concentration 1×10^7 cell in 2 ml CELLBANKER2 (#11891, ZENOAQ) per cryopreservation vial and stored at −80 degree Celsius.
BMDCs were thawed for the DC maturation experiments. These cells were seeded at 1×10^6 cells/2 ml in R10 medium containing 200 U/ml rmGM-CSF in wells of a 6-well tissue culture dish and cultured to recover the cell viability at 37° C. with 5% CO2. After 6 hr, BMDCs were treated with various fragments of mTREML1 protein and cultured in 37° C. with 5% CO2. On the next day, resuspended cells were collected and analyzed by flow cytometry.
Cells were centrifuged at 1800 rpm for 3 min in PBS containing 1% FBS and 0.1% sodium azide (PBSBA), and then divided at a concentration of 1×10^5 cells/100 ul PBSBA in flow tube. Before staining the surface marker of DC, cells were treated with mouse Fc blocker to avoid antibody non-specific binding at room temperature for 30 min. […] After PBSBA washing, samples were analyzed using the CytoFlex flow cytometer with the CytExpert software.

Sequence of TLR4 (O00206 24-839): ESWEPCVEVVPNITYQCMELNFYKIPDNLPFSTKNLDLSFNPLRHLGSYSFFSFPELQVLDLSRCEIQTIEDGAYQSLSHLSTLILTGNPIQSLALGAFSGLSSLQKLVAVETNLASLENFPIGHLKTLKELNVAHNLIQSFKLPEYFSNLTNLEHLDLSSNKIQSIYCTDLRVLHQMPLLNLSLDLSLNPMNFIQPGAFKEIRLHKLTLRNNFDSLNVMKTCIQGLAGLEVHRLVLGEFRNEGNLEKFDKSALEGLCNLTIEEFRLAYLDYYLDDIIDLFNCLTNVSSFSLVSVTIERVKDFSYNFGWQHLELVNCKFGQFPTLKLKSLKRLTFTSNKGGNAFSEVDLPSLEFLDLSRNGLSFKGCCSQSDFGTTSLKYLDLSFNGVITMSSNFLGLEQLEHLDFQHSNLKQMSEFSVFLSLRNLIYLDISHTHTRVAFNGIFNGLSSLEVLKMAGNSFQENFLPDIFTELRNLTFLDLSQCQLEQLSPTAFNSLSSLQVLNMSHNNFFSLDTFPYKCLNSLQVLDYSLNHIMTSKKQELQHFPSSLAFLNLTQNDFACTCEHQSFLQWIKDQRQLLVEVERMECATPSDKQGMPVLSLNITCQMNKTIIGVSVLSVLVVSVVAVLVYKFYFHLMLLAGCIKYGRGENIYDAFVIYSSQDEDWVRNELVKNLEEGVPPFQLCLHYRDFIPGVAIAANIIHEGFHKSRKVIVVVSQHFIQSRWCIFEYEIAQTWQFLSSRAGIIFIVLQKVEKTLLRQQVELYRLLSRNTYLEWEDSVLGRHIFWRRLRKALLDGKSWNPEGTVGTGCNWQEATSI

Molecule: CCOCc1nc2c(N)nc3ccccc3c2n1CC(C)(C)O [R848, 4-amino-2-(ethoxymethyl)-α,α-dimethyl-1H-imidazo[4,5-c]quinoline-1-ethanol, reference compound]
- TNF-α secretion induced by TLR agonist alone [1]: can induce TNF-α secretion

Molecule: TREML1 stalk: human TREML1 stalk polypeptide, SEQ ID NO:3, ILPPEEEEETHKIGSLAENAFSDPAGSANPLEPSQDEKSIP, chemically synthesized (listed as Homo sapiens)
- MD2 binding to immobilized TREML1 stalk (MD2): binds with TREML1 stalk in a concentration-dependent manner
- TLR4 binding to immobilized TREML1 stalk (TLR4): do not bind TREML1 stalk
- CD14 binding to immobilized TREML1 stalk (CD14): do not bind TREML1 stalk

B1: mTREML1 ECD: mouse TREML1 extracellular domain, SEQ ID NO:2; recombinant, E. coli, polyhistidine tag at the N-terminus (protein, listed as Mus musculus)
chain: DSHPEVLQAPVGSSILVQCHYRLQDVRALKVWCQFLQEGCHPLVTSAVDRRAPGNGRIFLTDLGGGLLQVEMVTLQEEDTGEYGCVVEGAAGPQTLHRVSLLVLPPVPGPREGEEAEDEKETYRIGTGSLLEDPSLDPSASAGPHEFRRRENSIP
modifications: N-terminal polyhistidine tag
notes: recombinant, E. coli, polyhistidine tag at the N-terminus
- dendritic cell maturation effect compared with TNF-α (BMDCs): significantly stronger than those of TNF-α
- dendritic cell maturation (DC maturation markers CD40, CD86, CD80, MHC II) (BMDCs; analyzed the next day): can trigger dendritic cell maturation
